Blank lines part the entries; values can stand above or below the binder they belong to.
What was measured:
[1] = biological target: RPS15 (human, UniProt P62841 2-145); assay: co-IP/MS, anti-FLAG IP of N-FLAG B3GNT2 cell lysate
Protocol: (§1) Cells were plated in 10-cm cell culture dishes and grown to 60-80% confluency. For each condition, two biological replicates were harvested for co-IP. Cells were washed with PBS and 4 mL of lysis buffer (20 mM HEPES, 1% Triton X-100, 150 mM NaCl, 1 mM EDTA, and 10% glycerol) containing protease inhibitor cocktail was added. Cells were scraped and lysate was incubated at 4° C. under rotary agitation for 1 h. Lysate was centrifuged at 14,000×g for 10 min at 4° C. Supernatant was transferred to a new tube and an aliquot was taken as the input. […] For Western blots, 10 μg/mL Chicken Anti-FLAG (Aves labs ET-DY100) and IgY control (R&D Systems AB-101-C) antibodies were biotinylated (Thermo Fisher Scientific 90407) and added to the respective conditions. Lysates with antibodies were incubated at 4° C. under rotary agitation overnight. For each mL of lysate, 50 μL of Pierce Protein A/G Magnetic Beads (Mass spectrometry; Thermo Fisher Scientific 88803) or Pierce Streptavidin Magnetic Beads (Western blot; Thermo Fisher Scientific 88817) was washed twice with lysis buffer. Lysates with antibodies were added to the beads and incubated at 4° C. under rotary agitation for 4 h. Beads were washed with lysis buffer 3 times and resuspended in lysis buffer for storage.
(§2) Magnetic beads were resuspended in 100 mM Tris pH 7.8, reduced, alkylated and digested with trypsin at 37° ° C. overnight. This solution was subjected to solid phase extraction to concentrate the peptides and remove unwanted reagents followed by injection onto a Shimadzu HPLC with fraction collector. Eight fractions were collected and after concentration were injected on a Waters NanoAcquity HPLC equipped with a self-packed Aeris 3 μm C18 analytical column 0.075 mm by 20 cm, (Phenomenex). Peptides were eluted using standard reverse-phase gradients. The effluent from the column was analyzed using a Thermo Orbitrap Elite mass spectrometer (nanospray configuration) operated in a data dependent manner for 54 minutes. The resulting fragmentation spectra were correlated against the known database using Proteome Discover 1.4 (Thermo Fisher Scientific).

[2] = biological target: RPL30 (human, UniProt P62888 1-115); assay: as above
Protocol: as §1, §2

[3] = biological target: T1, PRDX2 (human, UniProt P32119 2-198); assay: as above
T1 construct: also called NP_005800.3
T1 sequence (looked up): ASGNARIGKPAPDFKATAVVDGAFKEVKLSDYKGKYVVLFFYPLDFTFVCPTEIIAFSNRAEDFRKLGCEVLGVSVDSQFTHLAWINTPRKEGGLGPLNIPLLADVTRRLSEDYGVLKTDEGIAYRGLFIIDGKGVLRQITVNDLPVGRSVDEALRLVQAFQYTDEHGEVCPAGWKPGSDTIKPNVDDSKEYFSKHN
Protocol: as §1, §2

[4] = biological target: RPS5 (human, UniProt P46782 1-204); assay: as above
Protocol: as §1, §2

[5] = biological target: RPL24 (human, UniProt P83731 1-157); assay: as above
Protocol: as §1, §2

[6] = biological target: RPL14 (human, UniProt P50914 2-215); assay: as above
Protocol: as §1, §2

[7] = biological target: RPS3A (human, UniProt P61247 2-264); assay: as above
Protocol: as §1, §2

[8] = biological target: T2, FKBP10 (human, UniProt Q96AY3 27-582); assay: as above
T2 construct: also called NP_068758.3 (+1)
Protocol: as §1, §2

[9] = biological target: RPS9 (human, UniProt P46781 2-194); assay: as above
Protocol: as §1, §2

[10] = biological target: T3, PRDX1 (human, UniProt Q06830 2-199); assay: as above
T3 construct: also called NP_859048.1
T3 sequence (looked up): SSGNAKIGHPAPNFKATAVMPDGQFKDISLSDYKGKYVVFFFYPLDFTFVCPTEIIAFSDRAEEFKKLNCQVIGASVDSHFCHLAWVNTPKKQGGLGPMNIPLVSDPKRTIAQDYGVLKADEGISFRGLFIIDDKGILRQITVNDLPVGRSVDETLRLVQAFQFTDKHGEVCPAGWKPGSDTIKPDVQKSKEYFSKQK
Protocol: as §1, §2

[11] = biological target: T4, PCBP1 (human, UniProt Q15365 1-356); assay: co-IP/MS, anti-FLAG IP of C-FLAG B3GNT2 cell lysate
T4 construct: also called NP_006187.2
Protocol: as §1, §2

[12] = biological target: T5, TGM3 (human, UniProt Q08188 2-693, limits assumed); assay: as above
T5 construct: also called NP_003236.3
T5 sequence (looked up): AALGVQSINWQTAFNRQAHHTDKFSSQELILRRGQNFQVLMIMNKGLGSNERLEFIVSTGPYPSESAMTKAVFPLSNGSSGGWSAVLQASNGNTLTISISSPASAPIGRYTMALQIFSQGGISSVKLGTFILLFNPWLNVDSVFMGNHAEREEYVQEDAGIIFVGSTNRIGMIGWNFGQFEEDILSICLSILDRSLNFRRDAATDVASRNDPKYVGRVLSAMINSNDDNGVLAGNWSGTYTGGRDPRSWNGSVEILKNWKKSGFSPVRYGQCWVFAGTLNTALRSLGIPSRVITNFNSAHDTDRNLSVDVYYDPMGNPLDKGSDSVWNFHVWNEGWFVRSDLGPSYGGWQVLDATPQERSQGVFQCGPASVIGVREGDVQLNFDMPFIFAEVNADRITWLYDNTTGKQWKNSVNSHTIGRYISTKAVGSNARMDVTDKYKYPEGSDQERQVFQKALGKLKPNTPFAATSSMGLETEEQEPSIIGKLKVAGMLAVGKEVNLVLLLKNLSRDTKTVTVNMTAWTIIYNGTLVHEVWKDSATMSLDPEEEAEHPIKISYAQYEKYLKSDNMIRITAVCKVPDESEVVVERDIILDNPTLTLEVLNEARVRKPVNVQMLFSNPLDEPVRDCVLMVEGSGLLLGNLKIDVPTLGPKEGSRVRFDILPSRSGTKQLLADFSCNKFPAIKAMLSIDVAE
Protocol: as §1, §2

[13] = biological target: CAPZA1 (human, UniProt P52907 2-286); assay: as above
Protocol: as §1, §2

[14] = biological target: T6, LRP1 (human, UniProt Q07954 20-4544, limits assumed); assay: as above
T6 construct: also called NP_002323.2 (+1)
Protocol: as §1, §2

[15] = biological target: RPS7 (human, UniProt P62081 1-194); assay: as above
Protocol: as §1, §2

[16] = biological target: RPS12 (human, UniProt P25398 2-132); assay: as above
Protocol: as §1, §2

[17] = biological target: T7, PIP (human, UniProt P12273 29-146); assay: as above
T7 construct: also called NP_002643.1
T7 sequence (looked up): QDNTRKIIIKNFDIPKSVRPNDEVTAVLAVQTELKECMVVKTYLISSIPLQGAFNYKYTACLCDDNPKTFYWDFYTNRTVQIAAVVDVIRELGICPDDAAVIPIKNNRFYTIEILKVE
Protocol: as §1, §2

[18] = biological target: T8, PSMA5 (human, UniProt P28066 1-241); assay: anti-FLAG co-IP from lysate of C-FLAG B3GNT2 cells, mass spectrometry
T8 construct: also called NP_002781.2
Protocol: as §1, §2

[19] = biological target: T9, ERP29 (human, UniProt P30040 33-261); assay: as above
T9 construct: also called NP_006808.1
Protocol: as §1, §2

[20] = biological target: T10, PSMC2 (human, UniProt P35998 2-433); assay: as above
T10 construct: also called NP_002794.1
T10 sequence (looked up): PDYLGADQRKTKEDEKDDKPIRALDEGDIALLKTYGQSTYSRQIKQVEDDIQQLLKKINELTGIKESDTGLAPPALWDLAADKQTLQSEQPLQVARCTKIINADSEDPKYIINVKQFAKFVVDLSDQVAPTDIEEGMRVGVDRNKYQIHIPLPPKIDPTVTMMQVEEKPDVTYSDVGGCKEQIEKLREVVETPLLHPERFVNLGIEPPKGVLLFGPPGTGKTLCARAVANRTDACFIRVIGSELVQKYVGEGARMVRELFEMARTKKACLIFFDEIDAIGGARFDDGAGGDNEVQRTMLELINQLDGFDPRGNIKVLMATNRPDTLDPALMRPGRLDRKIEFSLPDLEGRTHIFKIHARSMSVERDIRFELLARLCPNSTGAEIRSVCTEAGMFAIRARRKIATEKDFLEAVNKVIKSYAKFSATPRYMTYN
Protocol: as §1, §2

[21] = biological target: T11, PSMB4 (human, UniProt P28070 46-264); assay: as above
T11 construct: also called NP_002787.2
Protocol: as §1, §2

T8 sequence (P28066 whole entry): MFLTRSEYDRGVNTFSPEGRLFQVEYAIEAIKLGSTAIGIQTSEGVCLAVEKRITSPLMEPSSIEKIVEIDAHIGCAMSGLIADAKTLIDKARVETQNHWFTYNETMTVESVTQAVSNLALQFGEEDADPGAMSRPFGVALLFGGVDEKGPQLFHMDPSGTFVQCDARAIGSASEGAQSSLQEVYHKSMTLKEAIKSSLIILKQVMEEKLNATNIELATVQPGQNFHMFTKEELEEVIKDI
T4 sequence (Q15365 whole entry): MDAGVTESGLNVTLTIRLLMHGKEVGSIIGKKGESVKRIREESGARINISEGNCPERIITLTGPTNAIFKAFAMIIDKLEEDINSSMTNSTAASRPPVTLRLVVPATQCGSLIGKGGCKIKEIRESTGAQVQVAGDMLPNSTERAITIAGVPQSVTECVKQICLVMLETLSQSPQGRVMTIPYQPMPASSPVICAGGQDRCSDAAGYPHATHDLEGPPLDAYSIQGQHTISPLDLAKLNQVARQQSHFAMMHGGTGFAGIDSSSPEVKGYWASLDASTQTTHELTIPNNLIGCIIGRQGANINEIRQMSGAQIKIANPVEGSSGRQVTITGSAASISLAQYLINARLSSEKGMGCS
T2 sequence (Q96AY3 27-582 limits assumed): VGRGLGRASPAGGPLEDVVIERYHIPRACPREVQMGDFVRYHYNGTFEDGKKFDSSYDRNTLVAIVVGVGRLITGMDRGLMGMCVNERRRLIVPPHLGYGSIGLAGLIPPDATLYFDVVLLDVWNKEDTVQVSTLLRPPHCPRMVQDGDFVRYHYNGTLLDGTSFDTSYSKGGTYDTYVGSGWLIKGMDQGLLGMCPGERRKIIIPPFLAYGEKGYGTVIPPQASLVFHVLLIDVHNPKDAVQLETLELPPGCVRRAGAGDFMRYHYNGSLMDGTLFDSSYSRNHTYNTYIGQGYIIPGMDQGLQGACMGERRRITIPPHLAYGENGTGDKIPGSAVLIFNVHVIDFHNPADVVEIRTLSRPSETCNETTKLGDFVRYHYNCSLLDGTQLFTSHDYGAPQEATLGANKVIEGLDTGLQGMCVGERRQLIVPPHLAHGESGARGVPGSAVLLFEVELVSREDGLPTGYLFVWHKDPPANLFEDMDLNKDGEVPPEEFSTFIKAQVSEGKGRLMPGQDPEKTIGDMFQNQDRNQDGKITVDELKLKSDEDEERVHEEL
T11 sequence (P28070 46-264 limits assumed): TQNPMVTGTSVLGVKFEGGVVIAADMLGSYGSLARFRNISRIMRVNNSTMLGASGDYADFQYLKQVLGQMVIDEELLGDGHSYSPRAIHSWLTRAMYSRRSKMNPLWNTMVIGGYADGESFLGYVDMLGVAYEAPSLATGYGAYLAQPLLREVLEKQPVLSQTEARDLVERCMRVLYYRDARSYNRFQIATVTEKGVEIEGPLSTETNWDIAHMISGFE

co-IP mass spectrometry count [1]: 7
co-IP mass spectrometry count [2]: 8
co-IP mass spectrometry count [3]: 9
co-IP mass spectrometry count [4]: 4
co-IP mass spectrometry count [5]: 4
co-IP mass spectrometry count [6]: 11
co-IP mass spectrometry count [7]: 12
co-IP mass spectrometry count [8]: 0
co-IP mass spectrometry count [9]: 2
co-IP mass spectrometry count [10]: 8
B1: N-terminal FLAG tagged B3GNT2 (enzyme, human, UniProt Q9NY97 1-397, looked up)
chain: MSVGRRRIKLLGILMMANVFIYFIMEVSKSSSQEKNGKGEVIIPKEKFWKISTPPEAYWNREQEKLNRQYNPILSMLTNQTGEAGRLSNISHLNYCEPDLRVTSVVTGFNNLPDRFKDFLLYLRCRNYSLLIDQPDKCAKKPFLLLAIKSLTPHFARRQAIRESWGQESNAGNQTVVRVFLLGQTPPEDNHPDLSDMLKFESEKHQDILMWNYRDTFFNLSLKEVLFLRWVSTSCPDTEFVFKGDDDVFVNTHHILNYLNSLSKTKAKDLFIGDVIHNAGPHRDKKLKYYIPEVVYSGLYPPYAGGGGFLYSGHLALRLYHITDQVHLYPIDDVYTGMCLQKLGLVPEKHKGFRTFDIEEKNKNNICSYVDLMLVHSRKPQEMIDIWSQLQSAHLKC
notes: FLAG-tagged ORF overexpressed in cells; bait of the co-IP, pulled down with mouse anti-FLAG; also called N-FLAG B3GNT2; N-term FLAG; not shown: N-terminal FLAG tag

co-IP mass spectrometry count [11]: 4
co-IP mass spectrometry count [12]: 5
co-IP mass spectrometry count [13]: 0
co-IP mass spectrometry count [14]: 0
co-IP mass spectrometry count [15]: 8
co-IP mass spectrometry count [16]: 8
co-IP mass spectrometry count [17]: 3
B2: C-terminal FLAG tagged B3GNT2 (enzyme, human, UniProt Q9NY97 1-397, looked up)
chain: B1 chain
notes: FLAG-tagged ORF overexpressed in cells; bait of the co-IP, pulled down with mouse anti-FLAG; also called C-FLAG B3GNT2; C-term flag; not shown: C-terminal FLAG tag

co-IP mass spectrometry count [18]: 0
co-IP mass spectrometry count [19]: 0
co-IP mass spectrometry count [20]: 0
co-IP mass spectrometry count [21]: 0
B3: C-terminal FLAG tagged B3GNT2 (enzyme, human, UniProt Q9NY97 1-397, looked up)
chain: B1 chain
notes: Bait of the co-IP; pulled down from cell lysate with mouse anti-FLAG antibody; also called C-FLAG B3GNT2; C-term flag; not shown: C-terminal FLAG tag
